Laboratory results: patent US20090175786A1 (published 2009)
Where two headings read alike, the source gives them in different places. Where no end group is shown, it is not given here. [ ]: non-standard residue; d: D form. The star is where a group is joined. DOTA = O=C(O)CN1CCN(CC(=O)O)CCN(CC(=O)*)CCN(CC(=O)O)CC1; 4Abz = Nc1ccc(C(=O)O)cc1; Dap = NC[C@H](N)C(=O)O; AEEA = NCCOCCOCC(=O)O; Me2Gly = CN(C)CC(=O)*; Acm = CC(=O)NC*

Columns and labels:
[1] = biological target: T1, gastrin releasing peptide receptor (GRP-R), human (human, UniProt P30550 1-384); experiment: 125I-BBN competition, PC3 cells
T1 construct: whole, on cells; also called GRP receptor; GRP-preferring receptor

[2] = biological target: T1, gastrin releasing peptide receptor …; experiment: displacement of 125I-universal ligand, human tumour sections
[3] = biological target: T1, gastrin releasing peptide receptor …; experiment: 125I-BBN competition, PC3 cells; remark: listed apart in the source
[4] = biological target: T2, neuromedin-B preferring receptor (NMB-R) of C6 rodent glioblastoma cells (rodent, UniProt P24053 1-390, limits assumed); experiment: 125I-NMB competition, C6 cells
T2 construct: whole, on cells; also called C6/NMB-R
T2 sequence (looked up): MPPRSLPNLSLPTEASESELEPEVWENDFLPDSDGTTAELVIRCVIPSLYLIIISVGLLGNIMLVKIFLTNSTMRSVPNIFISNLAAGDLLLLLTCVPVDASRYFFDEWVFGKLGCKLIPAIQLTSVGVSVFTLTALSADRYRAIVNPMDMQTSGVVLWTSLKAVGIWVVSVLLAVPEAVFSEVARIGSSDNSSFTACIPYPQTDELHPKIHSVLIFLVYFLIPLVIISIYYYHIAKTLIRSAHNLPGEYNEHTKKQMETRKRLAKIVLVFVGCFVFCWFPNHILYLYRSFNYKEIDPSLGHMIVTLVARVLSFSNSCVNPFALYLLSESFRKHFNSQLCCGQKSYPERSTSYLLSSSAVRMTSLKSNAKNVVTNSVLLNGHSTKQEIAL
Protocol: The binding parameters obtained from the studies were analyzed using a one-site competition non-linear regression analysis with GraphPad Prism.

[5] = biological target: T2, neuromedin-B preferring receptor …; experiment: 125I-NMB competition, C6 cells; remark: listed apart in the source
[6] = biological target: T1, gastrin releasing peptide receptor …; experiment: 125I-BBN competition, PC3 cells; remark: listed apart in the source
Protocol: (§1) All compounds tested were dissolved in binding buffer and appropriate dilutions were also done in binding buffer. PC3 cells for assay were seeded at a concentration of 2.0×10⁴/well either in 96-well black/clear collagen I cellware plates (Beckton Dickinson Biocoat). Plates were used for binding studies on day 2 post-plating. The plates were checked for confluency (>90% confluent) prior to assay. […] The studies were conducted with an assay volume of 75 μL per well. Triplicate wells were used for each data point. After the addition of the appropriate solutions, plates were incubated for 1 hour at 4° C. Incubation was ended by the addition of 200 μL of ice-cold incubation buffer. Plates were washed 5 times and blotted dry. Radioactivity was detected using either a LKB CompuGamma counter or a microplate scintillation counter.

[7] = biological target: T1, gastrin releasing peptide receptor …; experiment: 125I-BBN competition, PC3 cells; remark: listed apart in the source
Protocol: as §1

[8] = biological target: T3, bombesin receptor subtype 3 (BB3-R), human (human, UniProt P32247 1-399); experiment: receptor autoradiography on human tumour sections
T3 construct: whole, on cells; tissue sections, receptor autoradiography
T3 sequence (looked up): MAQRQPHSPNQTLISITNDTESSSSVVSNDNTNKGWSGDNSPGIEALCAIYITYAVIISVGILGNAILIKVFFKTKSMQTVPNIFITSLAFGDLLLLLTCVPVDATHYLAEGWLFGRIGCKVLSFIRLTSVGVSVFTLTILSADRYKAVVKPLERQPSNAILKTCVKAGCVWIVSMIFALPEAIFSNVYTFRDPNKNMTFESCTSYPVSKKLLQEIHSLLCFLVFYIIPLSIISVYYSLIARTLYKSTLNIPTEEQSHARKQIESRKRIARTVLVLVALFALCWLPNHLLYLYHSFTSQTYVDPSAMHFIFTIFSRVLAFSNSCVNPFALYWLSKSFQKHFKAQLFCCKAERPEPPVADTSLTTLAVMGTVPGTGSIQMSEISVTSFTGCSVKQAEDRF
Description: Human ileal carcinoid tissue was used as a source for NMB-R, human prostate carcinoma for GRP-R and human bronchial carcinoid for BB3-R subtype receptors.

T1 sequence (P30550 whole entry): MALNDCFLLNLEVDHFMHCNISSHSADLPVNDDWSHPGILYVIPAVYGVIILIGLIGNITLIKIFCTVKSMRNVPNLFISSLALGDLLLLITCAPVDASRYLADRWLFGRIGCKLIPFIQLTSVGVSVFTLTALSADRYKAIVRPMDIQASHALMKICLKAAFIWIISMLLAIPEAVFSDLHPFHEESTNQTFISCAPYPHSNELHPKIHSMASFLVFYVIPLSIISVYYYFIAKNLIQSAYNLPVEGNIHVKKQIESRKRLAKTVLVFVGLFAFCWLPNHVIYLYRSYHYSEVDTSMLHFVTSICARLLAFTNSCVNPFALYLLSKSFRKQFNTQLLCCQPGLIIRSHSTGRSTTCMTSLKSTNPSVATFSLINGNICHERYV

B1: N,N-dimethylglycine-Ser-Cys(Acm)-Gly-8-amino-3,6-dioxaoctanoic acid-Arg-BBN(7-14) (peptide)
peptide: RQWAVGHLM
modifications: N-terminus: N,N-dimethylglycine-Ser-Cys(Acm)-Gly-8-amino-3,6-dioxaoctanoic acid; C-terminal amide
notes: also called L9
Work on B1 yielded an IC50 [1] of 6 nM.

B2: N,N-dimethylglycine-Ser-Cys(Acm)-Gly-8-amino-3,6-dioxaoctanoic acid-Asp-BBN(7-14) (peptide)
peptide: DQWAVGHLM
modifications: N-terminus: N,N-dimethylglycine-Ser-Cys(Acm)-Gly-8-amino-3,6-dioxaoctanoic acid; C-terminal amide
notes: also called L10
Work on B2 yielded an IC50 [1] of over 50 nM.

B3: N,N-dimethylglycine-Ser-Cys(Acm)-Gly-8-amino-3,6-dioxaoctanoic acid-Glu-BBN(7-14) (peptide)
peptide: EQWAVGHLM
modifications: N-terminus: N,N-dimethylglycine-Ser-Cys(Acm)-Gly-8-amino-3,6-dioxaoctanoic acid; C-terminal amide
notes: also called L13
Work on B3 yielded an IC50 [1] of over 50 nM.

B4: N,N-dimethylglycine-Ser-Cys(Acm)-Gly-8-amino-3,6-dioxaoctanoic acid-Lys-BBN(7-14) (peptide)
peptide: KQWAVGHLM
modifications: N-terminus: N,N-dimethylglycine-Ser-Cys(Acm)-Gly-8-amino-3,6-dioxaoctanoic acid; C-terminal amide
notes: also called L8
For B4, the IC50 [1] was 4 nM.

B5: N,N-dimethylglycine-Ser-Cys(Acm)-Gly-N-1-piperazineacetic acid-Asp-BBN(7-14) (peptide)
peptide: DQWAVGHLM
modifications: N-terminus: N,N-dimethylglycine-Ser-Cys(Acm)-Gly-N-1-piperazineacetic acid; C-terminal amide
notes: also called L33
B5 gave an IC50 [1] of over 50 nM.

B6: N,N-dimethylglycine-Ser-Cys(Acm)-Gly-N-4-aminoethyl-N-1-piperazineacetic acid-Asp-BBN(7-14) (peptide)
peptide: DQWAVGHLM
modifications: N-terminus: N,N-dimethylglycine-Ser-Cys(Acm)-Gly-N-4-aminoethyl-N-1-piperazineacetic acid; C-terminal amide
notes: also called L27
Work on B6 yielded an IC50 [1] of over 50 nM.

B7: ^175Lu-L70 (peptide)
peptide: QWAVGHLM
modifications: N-terminus: 175Lu complex of DO3A-monoamide-Gly-4-aminobenzoic acid; C-terminal amide
B7 gave an IC50 [2] of 0.8 nM.

B8: N,N-dimethylglycine-Ser-Cys(Acm)-Gly-SS-QWAVGHLM-NH2 (peptide)
peptide: [Me2Gly]SC(Acm)GSSQWAVGHLM-NH2
SMILES: CSCC[C@H](NC(=O)[C@H](CC(C)C)NC(=O)[C@H](Cc1c[nH]cn1)NC(=O)CNC(=O)[C@@H](NC(=O)[C@H](C)NC(=O)[C@H](Cc1c[nH]c2ccccc12)NC(=O)[C@H](CCC(N)=O)NC(=O)[C@H](CO)NC(=O)[C@H](CO)NC(=O)CNC(=O)[C@H](CSCNC(C)=O)NC(=O)[C@H](CO)NC(=O)CN(C)C)C(C)C)C(N)=O
Binder B8 has an IC50 [3] of 10 nM.

B9: N,N-dimethylglycine-Ser-Cys(Acm)-Gly-KE-QWAVGHLM-NH2 (peptide)
peptide: [Me2Gly]SC(Acm)GKEQWAVGHLM-NH2
SMILES: CSCC[C@H](NC(=O)[C@H](CC(C)C)NC(=O)[C@H](Cc1c[nH]cn1)NC(=O)CNC(=O)[C@@H](NC(=O)[C@H](C)NC(=O)[C@H](Cc1c[nH]c2ccccc12)NC(=O)[C@H](CCC(N)=O)NC(=O)[C@H](CCC(=O)O)NC(=O)[C@H](CCCCN)NC(=O)CNC(=O)[C@H](CSCNC(C)=O)NC(=O)[C@H](CO)NC(=O)CN(C)C)C(C)C)C(N)=O
B9 gave an IC50 [4] of 60 nM.

[Me2Gly]SC(Acm)GSKQWAVGHLM-NH2 [N,N-dimethylglycine-Ser-Cys(Acm)-Gly-SK-QWAVGHLM-NH2] showed an IC50 [3] of 2 nM.

B10: N,N-dimethylglycine-Ser-Cys(Acm)-Gly-SR-QWAVGHLM-NH2 (peptide)
peptide: [Me2Gly]SC(Acm)GSRQWAVGHLM-NH2
SMILES: CSCC[C@H](NC(=O)[C@H](CC(C)C)NC(=O)[C@H](Cc1c[nH]cn1)NC(=O)CNC(=O)[C@@H](NC(=O)[C@H](C)NC(=O)[C@H](Cc1c[nH]c2ccccc12)NC(=O)[C@H](CCC(N)=O)NC(=O)[C@H](CCCNC(=N)N)NC(=O)[C@H](CO)NC(=O)CNC(=O)[C@H](CSCNC(C)=O)NC(=O)[C@H](CO)NC(=O)CN(C)C)C(C)C)C(N)=O
B10 showed an IC50 [4] of 2 nM.

B11: N,N-dimethylglycine-Ser-Cys(Acm)-Gly-2,3-diaminopropionic acid-8-amino-3,6-dioxaoctanoic acid-Gly-BBN(7-14) (peptide)
peptide: {Me2Gly-Ser-Cys(Acm)}-G[Dap][AEEA]GQWAVGHLM-NH2
notes: same M-N-O-P-G as printed for L61, other MS; also called L26
Work on B11 yielded an IC50 [1] of 30 nM.

In the case of WAVGHLM-NH2 (also called BBN8-14) [WAVGHLM-NH2], the IC50 [5] is reported as over 800 nM and the IC50 [4] is reported as over 800 nM.

Work on {DOTA}-G[4Abz]LWATGHFM-NH2 (also called L227) [DO3A-monoamide-G-Abz4-LWATGHFM-NH2] yielded an IC50 [5] of 0.07 nM and an IC50 [4] of 0.8 nM.

B12: DO3A-monoamide-G-Abz4-QWAGHFL-NH2 (peptide)
peptide: {DOTA}-G[4Abz]QWAGHFL-NH2
SMILES: CC(C)C[C@H](NC(=O)[C@H](Cc1ccccc1)NC(=O)[C@H](Cc1c[nH]cn1)NC(=O)CNC(=O)[C@H](C)NC(=O)[C@H](Cc1c[nH]c2ccccc12)NC(=O)[C@H](CCC(N)=O)NC(=O)c1ccc(NC(=O)CNC(=O)CN2CCN(CC(=O)O)CCN(CC(=O)O)CCN(CC(=O)O)CC2)cc1)C(N)=O
notes: also called L224
With B12 the IC50 [6] was over 500 nM and the IC50 [7] was over 500 nM.

B13: N,N-dimethylglycine-Ser-Cys(Acm)-Gly-8-amino-3,6-dioxaoctanoic acid-Arg-Gly-BBN(7-14) (peptide)
peptide: RGQWAVGHLM
modifications: N-terminus: N,N-dimethylglycine-Ser-Cys(Acm)-Gly-8-amino-3,6-dioxaoctanoic acid; C-terminal amide
notes: same M-N-O-P-G as printed for L22, other MS; also called L57
In the case of B13, the IC50 [1] is reported as 50 nM.

B14: ^177Lu-L70 (peptide)
peptide: QWAVGHLM
modifications: N-terminus: 177Lu complex of DO3A-monoamide-Gly-4-aminobenzoic acid; C-terminal amide
notes: also called Lutetium complex of L70
B14: no binding [8].
